Reference: paper PMC7382298 (Immunity, 2020)

What was measured:
[1] = molecular target: T1, human full-length wild type gasdermin D (hGSDMD) (human, UniProt P57764 1-484); assay: SEC
T1 sequence (looked up): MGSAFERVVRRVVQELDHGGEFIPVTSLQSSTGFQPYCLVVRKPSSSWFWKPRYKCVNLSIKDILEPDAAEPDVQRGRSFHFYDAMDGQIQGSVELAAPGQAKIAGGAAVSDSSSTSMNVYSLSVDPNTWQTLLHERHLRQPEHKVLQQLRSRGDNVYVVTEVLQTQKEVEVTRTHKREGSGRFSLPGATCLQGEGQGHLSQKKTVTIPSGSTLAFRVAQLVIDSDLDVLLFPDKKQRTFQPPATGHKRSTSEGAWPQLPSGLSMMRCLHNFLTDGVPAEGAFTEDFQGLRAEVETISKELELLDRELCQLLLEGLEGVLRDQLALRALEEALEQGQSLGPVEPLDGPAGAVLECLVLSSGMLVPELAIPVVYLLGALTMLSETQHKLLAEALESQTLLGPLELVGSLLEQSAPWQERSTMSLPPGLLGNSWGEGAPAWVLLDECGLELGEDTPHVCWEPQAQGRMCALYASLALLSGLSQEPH

[2] = molecular target: T2, human GSDMD harboring truncation of residues 243-278 (human, UniProt P57764 1-484, truncation of residues 243-278); assay: SEC
T2 sequence (looked up): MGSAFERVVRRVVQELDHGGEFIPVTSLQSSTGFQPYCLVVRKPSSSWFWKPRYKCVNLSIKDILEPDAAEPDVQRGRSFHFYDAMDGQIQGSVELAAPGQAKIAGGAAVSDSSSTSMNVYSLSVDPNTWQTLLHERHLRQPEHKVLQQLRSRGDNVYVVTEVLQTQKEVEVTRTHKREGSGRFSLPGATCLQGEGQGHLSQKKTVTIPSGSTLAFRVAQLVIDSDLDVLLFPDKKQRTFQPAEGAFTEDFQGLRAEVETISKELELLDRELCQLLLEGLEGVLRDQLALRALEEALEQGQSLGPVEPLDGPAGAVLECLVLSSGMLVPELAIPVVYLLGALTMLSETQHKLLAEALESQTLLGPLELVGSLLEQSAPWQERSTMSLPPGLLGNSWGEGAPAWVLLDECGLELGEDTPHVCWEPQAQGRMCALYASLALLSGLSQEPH

[3] = molecular target: T3, mouse full-length wild type gasdermin D (mGSDMD) (mouse, UniProt Q9D8T2 1-487); assay: SEC
T3 sequence (looked up): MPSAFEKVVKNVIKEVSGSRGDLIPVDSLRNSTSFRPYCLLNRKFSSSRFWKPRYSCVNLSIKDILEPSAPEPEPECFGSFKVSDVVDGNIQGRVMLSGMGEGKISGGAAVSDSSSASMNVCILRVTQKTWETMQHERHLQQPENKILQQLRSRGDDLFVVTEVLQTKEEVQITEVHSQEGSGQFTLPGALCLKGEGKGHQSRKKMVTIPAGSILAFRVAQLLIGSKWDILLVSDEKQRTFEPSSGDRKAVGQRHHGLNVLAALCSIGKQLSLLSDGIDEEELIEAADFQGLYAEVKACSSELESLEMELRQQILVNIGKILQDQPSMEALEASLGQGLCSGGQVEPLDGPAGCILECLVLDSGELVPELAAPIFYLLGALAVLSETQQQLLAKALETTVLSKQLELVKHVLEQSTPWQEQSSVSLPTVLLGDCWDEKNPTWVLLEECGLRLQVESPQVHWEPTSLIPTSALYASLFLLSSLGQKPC

crystal structure = molecular target: the molecule itself; assay: crystal structure
[4] = molecular target: T4, GST-Mouse full-length wild type GSDMD (mouse, UniProt Q9D8T2 1-487); assay: pull-down
T4 sequence (looked up): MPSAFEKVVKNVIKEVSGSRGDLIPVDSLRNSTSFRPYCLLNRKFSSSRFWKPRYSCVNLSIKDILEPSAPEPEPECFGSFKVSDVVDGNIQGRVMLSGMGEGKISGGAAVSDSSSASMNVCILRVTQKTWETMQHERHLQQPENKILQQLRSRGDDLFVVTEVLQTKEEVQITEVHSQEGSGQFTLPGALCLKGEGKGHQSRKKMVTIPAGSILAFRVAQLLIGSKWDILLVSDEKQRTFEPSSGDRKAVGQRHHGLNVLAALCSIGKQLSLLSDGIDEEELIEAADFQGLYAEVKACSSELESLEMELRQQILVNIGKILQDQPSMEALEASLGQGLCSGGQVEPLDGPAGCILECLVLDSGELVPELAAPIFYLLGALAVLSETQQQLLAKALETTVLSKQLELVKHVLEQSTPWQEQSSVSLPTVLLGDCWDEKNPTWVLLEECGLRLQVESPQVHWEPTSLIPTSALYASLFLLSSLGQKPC

[5] = molecular target: T5, GST-Mouse full-length GSDMD harboring L306A/L310A mutations (2A mutant) (mouse, UniProt Q9D8T2 1-487, L306A | L310A); assay: pull-down
T5 sequence (looked up): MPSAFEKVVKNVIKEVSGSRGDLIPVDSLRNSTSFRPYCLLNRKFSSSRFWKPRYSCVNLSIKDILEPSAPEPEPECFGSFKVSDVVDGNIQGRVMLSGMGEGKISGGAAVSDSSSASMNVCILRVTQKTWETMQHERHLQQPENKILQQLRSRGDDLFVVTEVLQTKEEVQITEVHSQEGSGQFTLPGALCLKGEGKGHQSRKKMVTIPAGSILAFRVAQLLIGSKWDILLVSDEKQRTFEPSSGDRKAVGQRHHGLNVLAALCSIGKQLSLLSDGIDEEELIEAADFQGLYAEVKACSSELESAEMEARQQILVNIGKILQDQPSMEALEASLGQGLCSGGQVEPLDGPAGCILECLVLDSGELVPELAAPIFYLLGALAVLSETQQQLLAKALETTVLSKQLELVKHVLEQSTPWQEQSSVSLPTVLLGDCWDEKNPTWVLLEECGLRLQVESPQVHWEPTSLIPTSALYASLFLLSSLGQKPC

[6] = molecular target: T6, GST-Mouse full-length GSDMD harboring L361A/V367A/L370A mutations (3A mutant) (mouse, UniProt Q9D8T2 1-487, L361A | V367A | L370A); assay: pull-down
T6 sequence (looked up): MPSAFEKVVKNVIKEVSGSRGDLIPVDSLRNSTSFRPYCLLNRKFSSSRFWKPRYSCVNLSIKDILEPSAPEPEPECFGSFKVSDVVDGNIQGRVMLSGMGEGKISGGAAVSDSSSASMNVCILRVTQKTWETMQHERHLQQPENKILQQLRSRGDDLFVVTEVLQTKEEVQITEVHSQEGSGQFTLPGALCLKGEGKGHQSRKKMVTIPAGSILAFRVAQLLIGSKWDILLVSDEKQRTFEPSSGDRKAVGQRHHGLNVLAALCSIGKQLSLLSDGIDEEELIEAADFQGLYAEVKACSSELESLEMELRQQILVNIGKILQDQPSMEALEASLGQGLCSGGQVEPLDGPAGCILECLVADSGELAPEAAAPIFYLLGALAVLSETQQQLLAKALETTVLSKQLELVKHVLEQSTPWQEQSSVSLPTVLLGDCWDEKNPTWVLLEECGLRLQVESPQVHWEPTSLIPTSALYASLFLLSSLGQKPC

[7] = molecular target: T7, GST-Mouse full-length GSDMD harboring V367A/E369K mutations (mouse, UniProt Q9D8T2 1-487, V367A | E369K); assay: pull-down
T7 sequence (looked up): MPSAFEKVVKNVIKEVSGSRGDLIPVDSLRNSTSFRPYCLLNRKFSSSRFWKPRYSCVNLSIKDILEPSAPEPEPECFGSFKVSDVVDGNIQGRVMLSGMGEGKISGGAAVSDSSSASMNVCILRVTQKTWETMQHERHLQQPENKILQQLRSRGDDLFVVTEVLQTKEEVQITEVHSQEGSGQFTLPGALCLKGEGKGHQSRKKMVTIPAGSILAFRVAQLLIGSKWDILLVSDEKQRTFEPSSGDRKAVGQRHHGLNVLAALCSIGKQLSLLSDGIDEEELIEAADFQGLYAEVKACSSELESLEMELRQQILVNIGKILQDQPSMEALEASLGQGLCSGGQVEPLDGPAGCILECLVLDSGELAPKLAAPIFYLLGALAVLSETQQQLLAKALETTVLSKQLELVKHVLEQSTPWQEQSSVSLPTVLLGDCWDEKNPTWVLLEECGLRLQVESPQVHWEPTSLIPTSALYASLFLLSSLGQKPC

[8] = molecular target: T8, GST-Mouse full-length GSDMD harboring E369K/L370A mutations (mouse, UniProt Q9D8T2 1-487, E369K | L370A); assay: pull-down
T8 sequence (looked up): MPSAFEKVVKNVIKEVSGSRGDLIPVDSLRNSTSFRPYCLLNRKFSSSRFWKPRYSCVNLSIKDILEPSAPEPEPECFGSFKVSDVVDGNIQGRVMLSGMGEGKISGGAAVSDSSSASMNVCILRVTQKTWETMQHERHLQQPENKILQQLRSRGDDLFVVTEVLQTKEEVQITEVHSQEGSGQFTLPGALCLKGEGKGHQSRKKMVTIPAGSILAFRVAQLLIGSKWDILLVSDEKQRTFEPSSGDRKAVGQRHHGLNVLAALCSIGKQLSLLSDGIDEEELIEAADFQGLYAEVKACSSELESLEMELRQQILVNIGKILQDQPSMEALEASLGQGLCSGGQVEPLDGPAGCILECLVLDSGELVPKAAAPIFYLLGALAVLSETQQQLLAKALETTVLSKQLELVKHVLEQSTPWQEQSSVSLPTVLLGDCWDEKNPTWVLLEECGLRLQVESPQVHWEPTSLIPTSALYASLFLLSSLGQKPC

[9] = molecular target: T9, GST-Human full-length wild type GSDMD (human, UniProt P57764 1-484); assay: pull-down
T9 sequence (looked up): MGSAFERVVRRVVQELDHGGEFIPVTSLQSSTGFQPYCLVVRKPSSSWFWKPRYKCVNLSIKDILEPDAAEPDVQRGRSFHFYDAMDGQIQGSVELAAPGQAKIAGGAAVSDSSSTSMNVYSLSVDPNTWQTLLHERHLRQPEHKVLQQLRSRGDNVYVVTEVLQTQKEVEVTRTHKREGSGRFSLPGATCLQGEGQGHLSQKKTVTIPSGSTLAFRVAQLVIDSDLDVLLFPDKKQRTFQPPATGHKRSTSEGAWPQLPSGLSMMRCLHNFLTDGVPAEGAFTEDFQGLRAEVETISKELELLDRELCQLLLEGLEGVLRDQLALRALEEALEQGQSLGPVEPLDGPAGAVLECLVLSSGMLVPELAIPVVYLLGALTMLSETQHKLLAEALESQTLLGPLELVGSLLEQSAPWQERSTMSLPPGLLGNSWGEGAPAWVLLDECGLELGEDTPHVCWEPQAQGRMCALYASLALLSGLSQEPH

[10] = molecular target: T10, GST-Human GSDMD harboring truncation of residues 243-278 (human, UniProt P57764 1-484, truncation of residues 243-278); assay: pull-down
T10 sequence (looked up): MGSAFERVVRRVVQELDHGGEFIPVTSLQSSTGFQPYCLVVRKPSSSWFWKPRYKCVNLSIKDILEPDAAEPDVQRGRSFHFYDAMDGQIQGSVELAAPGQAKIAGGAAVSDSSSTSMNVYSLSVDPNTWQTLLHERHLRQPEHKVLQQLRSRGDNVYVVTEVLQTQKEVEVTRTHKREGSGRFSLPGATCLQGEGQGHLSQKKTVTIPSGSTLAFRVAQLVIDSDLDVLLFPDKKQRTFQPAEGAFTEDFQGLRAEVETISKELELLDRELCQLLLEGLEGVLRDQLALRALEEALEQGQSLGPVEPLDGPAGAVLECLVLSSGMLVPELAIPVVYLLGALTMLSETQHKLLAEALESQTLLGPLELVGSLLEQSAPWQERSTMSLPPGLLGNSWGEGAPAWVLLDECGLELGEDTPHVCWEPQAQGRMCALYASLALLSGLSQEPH

binding result [1]: binds
binding result [2]: binds
binding result [3]: binds
binding result [4]: binds
binding result [5]: binds
binding result [6]: binds
binding result [7]: binds
binding result [8]: binds
binding result [9]: binds
binding result [10]: binds
B1: human caspase-1 (hCASP1) catalytic domain p22/p10, C285A mutant (enzyme)
chain 1: NPAMPTSSGSEGNVKLCSLEEAQRIWKQKSAEIYPIMDKSSRTRLALIICNEEFDSIPRRTGAEVDITGMTMLLQNLGYSVDVKKNLTASDMTTELEAFAHRPEHKTSDSTFLVFMSHGIREGICGKKHSEQVPDILQLNAIFNMLNTKNCPSLKDKPKVIIIQAARGDSPGVVWFKDSVGVSGNLSLPTTEEFEDD
chain 2: AIKKAHIEKDFIAFCSSTPDNVSWRHPTMGSVFIGRLIEHMQEYACSCDVEEIFRKVRFSFEQPDGRAQMPTTERVTLTRCFYLFPGH
binding result (crystal structure): binds
